Laboratory results: US12448434B2, “Antibodies specifically recognizing Pseudomonas PcrV and uses thereof” (priority 2019, dated 2025)

System: mutated PcrV
Assay: Epitope mapping: ELISA binding to alanine-scanning mutated PcrV
Parameters: species or system P. aeruginosa
Description: Using the discovery studio software, the predicted binding sites on PcrV for 7B1 and the optimized antibodies were identified, and the amino acid residues within the binding sites and in proximity to the binding sites were selected and subjected to alanine scanning. Subsequently, PcrV proteins carrying these selected mutations were expressed. The binding affinity of 7B1-IgG1 for each mutated PcrV protein was analyzed using ELISA. FIGS. 14A-14D show the ELISA binding curves of the antibodies for mutated PcrV, where mutation positions were according to sequence of SEQ ID NO: 71. As used herein, PcrV represents a His-tagged wild-type P. aeruginosa PcrV (PcrV-6His). Mutations at various positions of the amino acid sequence of the wild type PcrV were generated using alanine scanning as described above.

B1: 7B1: optimized anti-PcrV mAb clone; VH SEQ ID NO: 62, VL SEQ ID NO: 67 (antibody, V domains shown)
VH: EVQLLESGGGLVQPGGSLRLSCTASGFTFSDNYMSWVRQAPGKGLDWVSVISESGGSTNYADSVKGRFSTSRDNSKSTLYLDMNSLRAEDTAIYYCAKGRFSTLSSHFFRAVYGMDVWGQGTAVTVSS
VL: DIQLTQSPSSLSASVGDRVTITCRASQGISSYLAWYQQKPGKAPKLLIYAASTLQSGVPSRFSGSGSGTDFTLTISSLQPEDFATYYCQQLSSYPLTFGGGTKVEIK
affected binding: effect of PcrV mutation at position D165 on binding (FIG. 14C) | effect of PcrV mutation at position D170 on binding (FIG. 14D) | effect of PcrV mutation at position D173 on binding (FIG. 14D) | effect of PcrV mutation at position S202 on binding (FIG. 14D) | effect of PcrV mutation at position T175 on binding (FIG. 14D)
significantly affected binding: effect of PcrV mutation at position Q160 on binding (FIG. 14C)
